2 molecules from PMC6190850, “The RNA-Recognition Motifs of TAR DNA-Binding Protein 43 May Play a Role in the Aberrant Self-Assembly of the Protein” can be followed below.

Common to all, as to details: protein: recombinant; tags: 6xHis-SUMO removed by TEV; single strand
In data set [1] the target is TDP-43 RRM1 (with 15-aa C-terminal linker) (UniProt Q13148 102-191). Briefly: BLI; BLI (Octet RED), 10 mM potassium phosphate pH 7.2, 150 mM KCl, 0.05% Tween, 25 C; RNA on streptavidin sensors, protein 1 nM-15 uM.
A further data set deals with TDP-43 RRM1-2 (UniProt Q13148 102-269). The data set is described as above.
Another data set addresses TDP-43 RRM2 (UniProt Q13148 192-269). Briefly: BLI; no Kd could be determined, protein up to 15 uM; BLI (Octet RED), 10 mM potassium phosphate pH 7.2, 150 mM KCl, 0.05% Tween, 25 C; RNA on streptavidin sensors, protein 1 nM-15 uM.

TDP-43 RRM1-2, sequence (Q13148 102-269): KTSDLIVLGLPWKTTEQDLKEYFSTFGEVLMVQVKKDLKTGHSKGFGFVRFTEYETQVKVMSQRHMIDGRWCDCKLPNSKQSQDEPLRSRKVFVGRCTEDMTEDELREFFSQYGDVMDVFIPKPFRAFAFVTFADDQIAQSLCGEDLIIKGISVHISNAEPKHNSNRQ
TDP-43 RRM1 (with 15-aa C-terminal linker), sequence (Q13148 102-191): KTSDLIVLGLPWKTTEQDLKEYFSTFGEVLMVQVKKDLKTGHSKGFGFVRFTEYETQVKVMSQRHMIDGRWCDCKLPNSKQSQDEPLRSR
TDP-43 RRM2, sequence (Q13148 192-269): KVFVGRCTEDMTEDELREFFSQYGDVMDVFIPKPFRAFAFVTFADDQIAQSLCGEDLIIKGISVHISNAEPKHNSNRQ

B1: NegAUG12 (ssRNA)
RNA: AUUCAUUCACAC
For the molecule B1, the Kd is 2550 ± 480 nM in data set [1] and 2600 ± 600 nM with TDP-43 RRM1-2. Also, the binding result with TDP-43 RRM2 is on record as “no binding”.

B2: AUG12 (ssRNA)
RNA: GUGUGAAUGAAU
Consider B2, for which the Kd in data set [1] amounted to 480 ± 90 nM; with TDP-43 RRM1-2, 3.9 nM.
